Laboratory results from PMC8935074, “Phosphorylated and Phosphomimicking Variants May Differ—A Case Study of 14-3-3 Protein” (Frontiers in Chemistry, 2022).
Each block holds one molecule with its values, some of them ahead of it.

Legend:
14-3-3ζ [1] = target: 14-3-3ζ (UniProt P63104); test: SEC-RALS, 36.5 μM; details: sites S58
14-3-3ζ [2] = target: 14-3-3ζ (UniProt P63104); test: AUC sedimentation velocity, 36.5 μM; details: sites S58
14-3-3ζ L12E_M78K = 14-3-3ζ L12E_M78K (UniProt P63104); test: SEC-RALS; 5 mg/mL (183 μM) pζ and ζm in PBS pH 7.4, 20°C, triplicates; KD of dimerisation estimated from the protein percentage in the dimeric and monomeric peaks; dimer to monomers
14-3-3ζ WT [3] = target: 14-3-3ζ WT (UniProt P63104); test: AUC; sedimentation velocity, 1 mg/mL (36.5 μM) protein in 50 mM Tris-HCl, 300 mM NaCl, 3 mM NaN3, pH 8, 20°C, 50,000 RPM, c(s) distribution; dimer to monomers
14-3-3ζ WT [4] = target: 14-3-3ζ WT (UniProt P63104); test: SEC-RALS; size-exclusion chromatography with right-angle light scattering, 1 mg/mL (36.5 μM) protein in PBS pH 7.4, Zenix SEC 300 column, 20°C; dimer to monomers
[5] = target: 14-3-3ζ phosphorylated at Ser58 (UniProt P63104); test: SEC-RALS; 5 mg/mL (183 μM) pζ and ζm in PBS pH 7.4, 20°C, triplicates; KD of dimerisation estimated from the protein percentage in the dimeric and monomeric peaks; dimer to monomers
FRET; 15°C = target: the molecule itself; test: FRET; 15°C
[6] = target: the molecule itself; test: FRET or BRET; kinetic FRET assay in a cuvette: 200 nM AF647-labelled plus 200 nM AF488-labelled ζ_S58E_Ntail, then 100-fold excess of non-labelled ζ_S58E; 20 mM sodium phosphate pH 6.8, 15°C; profile fitted for KD and koff; dimer to monomers
[7] = target: the molecule itself; test: SEC-RALS; 4.5 mg/mL (164 μM) ζ_S58D and ζ_S57D_S58D in PBS pH 7.4, 20°C, triplicates; KD of dimerisation calculated from the observed MW as weighted average of dimer and monomer; dimer to monomers
[8] = target: the molecule itself; test: AUC; sedimentation velocity, 1 mg/mL (36.5 μM) protein in 50 mM Tris-HCl, 300 mM NaCl, 3 mM NaN3, pH 8, 20°C, 50,000 RPM, c(s) distribution; dimer to monomers
[9] = reference: non-phosphorylated ζ

- other: apparent MW (14-3-3ζ [1]; [9]): weaker; reference 54.5
- other: apparent MW (14-3-3ζ [2]; [9]): weaker; reference 56.4
Molecule: 14-3-3ζ (from UniProt P63104) pζ (PKA co-expressed, purified pS58 form)

- other: apparent MW (14-3-3ζ [1]; reference: ζ wild type): weaker; reference 54.5
- other: apparent MW (14-3-3ζ [2]; reference: ζ wild type): weaker; reference 56.4
Molecule: 14-3-3ζ (from UniProt P63104) ζ_S57D_S58D

- other: apparent MW (14-3-3ζ [1]; reference: ζ wild type): weaker; reference 54.5
- other: apparent MW (14-3-3ζ [2]; reference: ζ wild type): weaker; reference 56.4
Molecule: 14-3-3ζ (from UniProt P63104) ζ_S58D

- other: apparent MW (14-3-3ζ [1]; reference: ζ wild type): weaker; reference 54.5
- other: apparent MW (14-3-3ζ [2]; reference: ζ wild type): same; reference 56.4
Molecule: 14-3-3ζ (from UniProt P63104) ζ_S58E

- Kd (14-3-3ζ L12E_M78K): 4600 µM
Molecule: 14-3-3ζ L12E_M78K (from UniProt P63104 1-245) (natural protein)

- stoichiometry N (14-3-3ζ WT [3]): 2
- stoichiometry N (14-3-3ζ WT [4]): 2
Molecule: 14-3-3ζ WT (from UniProt P63104 1-245) (natural protein)

- Kd [5]: 7600 µM
Molecule: 14-3-3ζ phosphorylated at Ser58 (from UniProt P63104 1-245) (natural protein)

B1: ζ_S58E_Ntail, fluorescently labelled (natural protein)
chain: SVDACKGSSGGMDKNELVQKAKLAEQAERYDDMAAAMKSVTEQGAELSNEERNLLSVAYKNVVGARRSEWRVVSSIEQKTEGAEKKQQMAREYREKIETELRDICNDVLSLLEKFLIPNASQAESKVFYLKMKGDYYRYLAEVAAGDDKKGIVDQSQQAYQEAFEISKKEMQPTHPIRLGLALNFSVFYYEILNSPEKAASLAKTAFDEAIAELDTLSEESYKDSTLIMQLLRDNLTLWTSDTQGDEAEAGEGGEN
modifications: Cys5 (of the added N-terminal tail) labelled with AlexaFluor647-C5-maleimide (AF647) in one preparation and AlexaFluor488-C2-maleimide (AF488) in the other
- koff (FRET; 15°C): 0.731 s⁻¹
- Kd [6]: 0.35 ± 0.25 µM

B2: 14-3-3ζ S58D (natural protein, UniProt P63104 1-245, looked up)
chain: MDKNELVQKAKLAEQAERYDDMAAAMKSVTEQGAELSNEERNLLSVAYKNVVGARRSDWRVVSSIEQKTEGAEKKQQMAREYREKIETELRDICNDVLSLLEKFLIPNASQAESKVFYLKMKGDYYRYLAEVAAGDDKKGIVDQSQQAYQEAFEISKKEMQPTHPIRLGLALNFSVFYYEILNSPEKAASLAKTAFDEAIAELDTLSEESYKDSTLIMQLLRDNLTLWTSDTQGDEAEAGEGGEN
notes: 14-3-3ζ protein with C25A C189A and the phosphomimicking mutation S58D; source: E. coli BL21(DE3) CodonPlus RIL, purified (protocol of Hritz et al., 2014)
- Kd [7]: 132 ± 7 µM

B3: 14-3-3ζ S58E (natural protein, UniProt P63104 1-245, looked up)
chain: MDKNELVQKAKLAEQAERYDDMAAAMKSVTEQGAELSNEERNLLSVAYKNVVGARRSEWRVVSSIEQKTEGAEKKQQMAREYREKIETELRDICNDVLSLLEKFLIPNASQAESKVFYLKMKGDYYRYLAEVAAGDDKKGIVDQSQQAYQEAFEISKKEMQPTHPIRLGLALNFSVFYYEILNSPEKAASLAKTAFDEAIAELDTLSEESYKDSTLIMQLLRDNLTLWTSDTQGDEAEAGEGGEN
notes: 14-3-3ζ protein with C25A C189A and the phosphomimicking mutation S58E; source: E. coli BL21(DE3) CodonPlus RIL, purified (protocol of Hritz et al., 2014)
- stoichiometry N [8]: 2

B4: 14-3-3ζ S57D_S58D (natural protein, UniProt P63104 1-245, looked up)
chain: MDKNELVQKAKLAEQAERYDDMAAAMKSVTEQGAELSNEERNLLSVAYKNVVGARRDDWRVVSSIEQKTEGAEKKQQMAREYREKIETELRDICNDVLSLLEKFLIPNASQAESKVFYLKMKGDYYRYLAEVAAGDDKKGIVDQSQQAYQEAFEISKKEMQPTHPIRLGLALNFSVFYYEILNSPEKAASLAKTAFDEAIAELDTLSEESYKDSTLIMQLLRDNLTLWTSDTQGDEAEAGEGGEN
notes: also called double phosphomimicking mutant; source: E. coli BL21(DE3) CodonPlus RIL, purified (protocol of Hritz et al., 2014)
- Kd [7]: 348 ± 19 µM
